Each block holds one substance with its values, some of them ahead of it.
Legend:
Assay in all cases: cell-based or functional assay
[1] = target: integrin αvβ5 on cells (T24, T24-β3 neg., OVCAR-5) (human) (UniProt P06756)
[2] = target: integrin αvβ3 on cells (T24, MDA-MB-435, β3-transfected 293 cells) (human) (UniProt P06756)
[3] = target: integrin receptors on the surface of MDA-MB-435 cells

integrin αvβ5 on cells (T24, T24-β3 neg., OVCAR-5) (human), sequence (P06756 31-1048, chain 1 of 2): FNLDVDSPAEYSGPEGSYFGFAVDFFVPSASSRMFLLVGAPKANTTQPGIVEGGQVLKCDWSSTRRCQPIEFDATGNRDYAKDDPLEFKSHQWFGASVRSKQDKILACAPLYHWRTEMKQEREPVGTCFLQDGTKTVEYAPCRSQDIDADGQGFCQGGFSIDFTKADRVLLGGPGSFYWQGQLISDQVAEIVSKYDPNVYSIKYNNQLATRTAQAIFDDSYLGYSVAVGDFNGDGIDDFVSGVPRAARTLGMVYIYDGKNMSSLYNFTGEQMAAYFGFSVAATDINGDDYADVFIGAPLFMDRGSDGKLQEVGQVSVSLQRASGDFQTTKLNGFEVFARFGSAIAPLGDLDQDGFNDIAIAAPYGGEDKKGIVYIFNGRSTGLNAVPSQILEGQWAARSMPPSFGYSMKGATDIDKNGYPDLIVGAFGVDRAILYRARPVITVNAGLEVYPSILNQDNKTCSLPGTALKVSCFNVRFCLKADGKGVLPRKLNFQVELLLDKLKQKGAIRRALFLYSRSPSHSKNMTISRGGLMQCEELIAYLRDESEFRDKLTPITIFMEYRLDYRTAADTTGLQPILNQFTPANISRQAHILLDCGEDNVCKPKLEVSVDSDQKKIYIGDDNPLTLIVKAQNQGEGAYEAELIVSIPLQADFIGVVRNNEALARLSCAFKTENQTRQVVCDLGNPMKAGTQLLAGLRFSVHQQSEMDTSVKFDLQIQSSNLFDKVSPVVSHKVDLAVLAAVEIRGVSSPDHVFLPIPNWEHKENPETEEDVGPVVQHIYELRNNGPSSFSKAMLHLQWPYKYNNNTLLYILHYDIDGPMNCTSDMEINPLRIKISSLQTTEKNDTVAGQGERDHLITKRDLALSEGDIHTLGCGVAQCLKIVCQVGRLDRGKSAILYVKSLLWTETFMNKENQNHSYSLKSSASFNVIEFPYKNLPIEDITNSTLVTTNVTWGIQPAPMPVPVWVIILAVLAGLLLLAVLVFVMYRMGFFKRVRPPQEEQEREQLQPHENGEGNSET
integrin αvβ5 on cells (T24, T24-β3 neg., OVCAR-5) (human), sequence (P18084 24-799, chain 2 of 2, further chain): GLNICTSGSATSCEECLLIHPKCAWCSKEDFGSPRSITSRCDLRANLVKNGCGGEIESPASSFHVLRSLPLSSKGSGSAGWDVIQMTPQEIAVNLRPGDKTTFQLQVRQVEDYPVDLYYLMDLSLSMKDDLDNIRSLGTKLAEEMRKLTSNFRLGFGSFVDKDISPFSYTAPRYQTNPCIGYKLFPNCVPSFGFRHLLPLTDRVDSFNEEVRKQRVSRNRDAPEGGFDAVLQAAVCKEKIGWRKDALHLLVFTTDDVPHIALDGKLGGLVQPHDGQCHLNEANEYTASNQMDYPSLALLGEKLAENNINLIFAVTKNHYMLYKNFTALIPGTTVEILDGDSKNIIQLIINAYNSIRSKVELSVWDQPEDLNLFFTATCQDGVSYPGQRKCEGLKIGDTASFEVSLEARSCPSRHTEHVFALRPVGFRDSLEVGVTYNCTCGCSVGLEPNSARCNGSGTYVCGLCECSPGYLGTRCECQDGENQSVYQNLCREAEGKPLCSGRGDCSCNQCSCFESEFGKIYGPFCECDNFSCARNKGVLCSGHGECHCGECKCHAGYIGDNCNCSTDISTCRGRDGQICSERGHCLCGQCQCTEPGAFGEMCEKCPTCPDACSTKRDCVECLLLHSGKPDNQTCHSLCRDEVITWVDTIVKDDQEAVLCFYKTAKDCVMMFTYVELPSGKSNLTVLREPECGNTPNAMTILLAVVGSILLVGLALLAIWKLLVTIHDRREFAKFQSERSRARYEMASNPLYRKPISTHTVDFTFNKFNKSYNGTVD
integrin αvβ3 on cells (T24, MDA-MB-435, β3-transfected 293 cells) (human), sequence (P06756 31-1048, chain 1 of 2): as the sequence (P06756 31-1048, chain 1 of 2) above
integrin αvβ3 on cells (T24, MDA-MB-435, β3-transfected 293 cells) (human), sequence (P05106 27-788, chain 2 of 2, further chain): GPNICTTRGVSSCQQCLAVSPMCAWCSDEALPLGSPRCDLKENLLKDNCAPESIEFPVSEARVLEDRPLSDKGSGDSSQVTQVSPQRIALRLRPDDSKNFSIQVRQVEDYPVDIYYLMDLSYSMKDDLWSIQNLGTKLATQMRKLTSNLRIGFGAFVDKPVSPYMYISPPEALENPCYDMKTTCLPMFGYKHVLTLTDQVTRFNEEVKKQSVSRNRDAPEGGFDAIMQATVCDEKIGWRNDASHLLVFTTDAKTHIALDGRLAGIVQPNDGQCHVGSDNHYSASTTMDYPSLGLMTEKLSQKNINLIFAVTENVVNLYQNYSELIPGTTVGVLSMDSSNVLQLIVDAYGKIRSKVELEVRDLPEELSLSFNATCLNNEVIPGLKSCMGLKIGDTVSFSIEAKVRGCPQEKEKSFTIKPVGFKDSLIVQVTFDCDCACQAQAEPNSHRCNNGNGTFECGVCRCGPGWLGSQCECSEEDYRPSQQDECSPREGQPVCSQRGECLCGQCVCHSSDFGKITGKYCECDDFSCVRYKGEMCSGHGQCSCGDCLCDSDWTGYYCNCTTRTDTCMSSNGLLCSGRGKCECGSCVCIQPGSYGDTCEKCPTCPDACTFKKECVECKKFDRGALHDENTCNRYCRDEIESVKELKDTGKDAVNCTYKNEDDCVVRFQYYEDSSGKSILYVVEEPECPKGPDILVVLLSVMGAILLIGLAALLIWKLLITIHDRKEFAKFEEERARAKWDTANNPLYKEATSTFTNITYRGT

- inhibition of adhesion of T24-β3 neg. cells to immobilized vitronectin [1]: 80%
- inhibition of adhesion of T24 cells to immobilized vitronectin [1]: < 40%
Substance: P1F6, anti-αvβ5 monoclonal antibody

- inhibition of adhesion of T24 cells to immobilized vitronectin [2]: < 40%
Substance: 7E3, murine monoclonal antibody against (GP)IIb/IIIa that also binds αvβ3

Substance: RGD peptide GRGDSP
- inhibition of binding of MDA-MB-435 cells to immobilized CN (IC50) [3]: 400 µM
